From publication PMC10491584, “Structural convergence endows nuclear transport receptor Kap114p with a transcriptional repressor function toward TATA-binding protein” (Nature Communications, 2023) come the findings set out here.

“And” between values parts separate entries of the source, which are not always exact repeats. Equal values may be shown once.

Common to all, as to conditions: both partners purified
Assay [1] has as its target T1, Kap114pΔ(932-941) (S. cerevisiae, UniProt P53067 1-1004, Δ(932-941)).
T1 construct: also called GST-Kap114p (Δ932-941); source: E. coli Rosetta, purified (GST resin, MonoQ, Superdex 200)
T1 sequence (looked up): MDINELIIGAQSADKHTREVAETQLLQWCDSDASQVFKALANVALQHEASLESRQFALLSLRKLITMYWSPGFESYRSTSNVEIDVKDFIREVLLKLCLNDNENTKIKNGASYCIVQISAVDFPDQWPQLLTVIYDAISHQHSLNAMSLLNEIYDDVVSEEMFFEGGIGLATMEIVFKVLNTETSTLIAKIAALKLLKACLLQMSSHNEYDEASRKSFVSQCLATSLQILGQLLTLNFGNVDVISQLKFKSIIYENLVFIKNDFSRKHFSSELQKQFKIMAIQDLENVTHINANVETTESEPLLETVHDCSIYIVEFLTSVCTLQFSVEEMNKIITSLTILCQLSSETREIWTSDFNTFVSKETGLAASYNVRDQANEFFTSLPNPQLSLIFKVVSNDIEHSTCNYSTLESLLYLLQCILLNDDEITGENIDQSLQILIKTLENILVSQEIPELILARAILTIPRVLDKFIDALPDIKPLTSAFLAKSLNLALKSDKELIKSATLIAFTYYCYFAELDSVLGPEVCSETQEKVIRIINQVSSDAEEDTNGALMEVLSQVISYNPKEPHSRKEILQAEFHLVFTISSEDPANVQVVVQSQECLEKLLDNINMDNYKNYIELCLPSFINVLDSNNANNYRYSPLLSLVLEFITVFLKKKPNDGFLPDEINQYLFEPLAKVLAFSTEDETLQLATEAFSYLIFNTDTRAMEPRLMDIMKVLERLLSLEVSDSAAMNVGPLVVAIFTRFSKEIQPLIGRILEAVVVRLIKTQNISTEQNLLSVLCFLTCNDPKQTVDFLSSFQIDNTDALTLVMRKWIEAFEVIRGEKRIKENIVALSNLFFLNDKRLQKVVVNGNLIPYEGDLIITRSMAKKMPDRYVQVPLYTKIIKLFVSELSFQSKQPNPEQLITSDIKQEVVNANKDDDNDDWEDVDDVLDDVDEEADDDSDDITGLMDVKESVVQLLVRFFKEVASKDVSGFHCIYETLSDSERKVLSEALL
Kind of assay: ITC; MicroCal iTC200, 25 °C, 20 mM HEPES pH 7.4, 150 mM NaCl; low concentration: 25 µM wild type or mutant Kap114p in the sample cell, 250 µM wild type or mutant yTBPC in the syringe; triplicate.

The target in assay [2] is T2, Kap114pΔY939 (S. cerevisiae, UniProt P53067 1-1004, ΔY939).
T2 construct: Kap114p, S. cerevisiae, full length with residue Y939 deleted; also called Kap114p(DY939); source: E. coli (Rosetta strain), purified (GST resin, MonoQ, Superdex 200)
T2 sequence (looked up): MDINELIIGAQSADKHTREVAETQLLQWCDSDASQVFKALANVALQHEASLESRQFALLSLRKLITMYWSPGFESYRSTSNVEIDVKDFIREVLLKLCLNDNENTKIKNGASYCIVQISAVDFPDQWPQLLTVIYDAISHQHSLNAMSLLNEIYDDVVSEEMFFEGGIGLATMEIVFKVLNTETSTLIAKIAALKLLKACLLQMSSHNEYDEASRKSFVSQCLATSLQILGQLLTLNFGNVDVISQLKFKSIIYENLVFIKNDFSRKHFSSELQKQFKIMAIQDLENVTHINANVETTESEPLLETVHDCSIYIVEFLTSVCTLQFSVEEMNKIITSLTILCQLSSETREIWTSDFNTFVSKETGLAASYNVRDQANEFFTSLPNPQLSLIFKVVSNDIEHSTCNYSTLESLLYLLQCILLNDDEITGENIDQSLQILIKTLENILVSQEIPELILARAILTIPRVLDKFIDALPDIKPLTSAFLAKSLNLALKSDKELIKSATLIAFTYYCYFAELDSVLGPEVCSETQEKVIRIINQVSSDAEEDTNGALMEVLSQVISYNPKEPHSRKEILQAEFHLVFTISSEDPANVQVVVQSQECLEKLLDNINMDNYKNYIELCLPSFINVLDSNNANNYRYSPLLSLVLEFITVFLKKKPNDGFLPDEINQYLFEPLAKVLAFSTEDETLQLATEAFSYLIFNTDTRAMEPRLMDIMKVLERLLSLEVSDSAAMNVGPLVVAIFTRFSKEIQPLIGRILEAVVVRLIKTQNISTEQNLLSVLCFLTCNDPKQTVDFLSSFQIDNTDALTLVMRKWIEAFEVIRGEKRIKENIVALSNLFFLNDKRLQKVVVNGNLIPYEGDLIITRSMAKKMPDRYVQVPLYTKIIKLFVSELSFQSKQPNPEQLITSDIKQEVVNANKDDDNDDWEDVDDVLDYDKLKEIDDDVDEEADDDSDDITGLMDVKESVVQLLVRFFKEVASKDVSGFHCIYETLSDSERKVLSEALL
Kind of assay: ITC; Kap114p (wild type or mutant) 50 uM in the sample cell, partner 500 uM in the syringe; 25 °C; 20 mM HEPES pH 7.4, 150 mM NaCl; triplicate.

Assay [3] has as its target T3, Kap114pΔ(932-941) (S. cerevisiae, UniProt P53067 1-1004, Δ(932-941)).
T3 construct: Kap114p, S. cerevisiae, full length with residues 932-941 deleted; also called Kap114p(D932-941); Kap114p deletion mutant lacking the HEAT19 loop (a.a. 932-941); source: E. coli (Rosetta strain), purified (GST resin, MonoQ, Superdex 200)
T3 sequence (looked up): T1 sequence (looked up)
The description is as above.

B1: yTBP^C wild type (core domain of yeast TATA-box binding protein, a.a. 61-240) (domain or fragment, S. cerevisiae, UniProt P13393 61-240, looked up)
chain: SGIVPTLQNIVATVTLGCRLDLKTVALHARNAEYNPKRFAAVIMRIREPKTTALIFASGKMVVTGAKSEDDSKLASRKYARIIQKIGFAAKFTDFKIQNIVGSCDVKFPIRLEGLAFSHGTFSSYEPELFPGLIYRMVKPKIVLLIFVSGKIVLTGAKQREEIYQAFEAIYPVLSEFRKM
notes: modified pET28a, 6xHis tag followed by a PreScission site; also called yTBPC WT; His-yTBP (61-240); source: E. coli Rosetta, purified (Ni-NTA, HiTrap SP, Superdex 75); not shown: His6, N-terminal, cleaved
On to B1, for which binding in assay [1] was characterised by a dissociation constant (Kd) of 79.9 nM.

B2: core domain of yTBP (a.a. 61-240) (domain or fragment, S. cerevisiae, UniProt P13393 61-240, looked up)
chain: B1 chain
notes: 61-240; also called yTBP^C; yTBPc; source: E. coli (Rosetta strain), purified (Ni-NTA, HiTrap SP, Superdex 75); not shown: 6xHis, N-terminal, cleaved
In assay [2], B2 showed a Kd of 37.1 nM. For the same molecule, the Ka in assay [3] was 5.09e+06 M⁻¹ and 8.69e+06 M⁻¹ and 6.15e+06 M⁻¹.
